Holding throughout (experiment): cell-based or functional assay
For assay [1], the target named is hNav1.7 (human) (UniProt Q15858).
The target in assay [2] is hNav1.8 (human) (UniProt Q9Y5Y9).
For assay [3], the target named is hNav1.9 (human) (UniProt Q9UI33).
Assay [4] has as its target hNav1.3 (human) (UniProt Q9NY46).
In assay [5] the target is hNav1.5 (human) (UniProt Q14524).
Assay [6] has as its target hNav1.4 (human) (UniProt P35499).
The target in assay [7] is hNav1.6 (human) (UniProt Q9UQD0).
Sequence of hNav1.6 (human) (Q9UQD0 whole entry): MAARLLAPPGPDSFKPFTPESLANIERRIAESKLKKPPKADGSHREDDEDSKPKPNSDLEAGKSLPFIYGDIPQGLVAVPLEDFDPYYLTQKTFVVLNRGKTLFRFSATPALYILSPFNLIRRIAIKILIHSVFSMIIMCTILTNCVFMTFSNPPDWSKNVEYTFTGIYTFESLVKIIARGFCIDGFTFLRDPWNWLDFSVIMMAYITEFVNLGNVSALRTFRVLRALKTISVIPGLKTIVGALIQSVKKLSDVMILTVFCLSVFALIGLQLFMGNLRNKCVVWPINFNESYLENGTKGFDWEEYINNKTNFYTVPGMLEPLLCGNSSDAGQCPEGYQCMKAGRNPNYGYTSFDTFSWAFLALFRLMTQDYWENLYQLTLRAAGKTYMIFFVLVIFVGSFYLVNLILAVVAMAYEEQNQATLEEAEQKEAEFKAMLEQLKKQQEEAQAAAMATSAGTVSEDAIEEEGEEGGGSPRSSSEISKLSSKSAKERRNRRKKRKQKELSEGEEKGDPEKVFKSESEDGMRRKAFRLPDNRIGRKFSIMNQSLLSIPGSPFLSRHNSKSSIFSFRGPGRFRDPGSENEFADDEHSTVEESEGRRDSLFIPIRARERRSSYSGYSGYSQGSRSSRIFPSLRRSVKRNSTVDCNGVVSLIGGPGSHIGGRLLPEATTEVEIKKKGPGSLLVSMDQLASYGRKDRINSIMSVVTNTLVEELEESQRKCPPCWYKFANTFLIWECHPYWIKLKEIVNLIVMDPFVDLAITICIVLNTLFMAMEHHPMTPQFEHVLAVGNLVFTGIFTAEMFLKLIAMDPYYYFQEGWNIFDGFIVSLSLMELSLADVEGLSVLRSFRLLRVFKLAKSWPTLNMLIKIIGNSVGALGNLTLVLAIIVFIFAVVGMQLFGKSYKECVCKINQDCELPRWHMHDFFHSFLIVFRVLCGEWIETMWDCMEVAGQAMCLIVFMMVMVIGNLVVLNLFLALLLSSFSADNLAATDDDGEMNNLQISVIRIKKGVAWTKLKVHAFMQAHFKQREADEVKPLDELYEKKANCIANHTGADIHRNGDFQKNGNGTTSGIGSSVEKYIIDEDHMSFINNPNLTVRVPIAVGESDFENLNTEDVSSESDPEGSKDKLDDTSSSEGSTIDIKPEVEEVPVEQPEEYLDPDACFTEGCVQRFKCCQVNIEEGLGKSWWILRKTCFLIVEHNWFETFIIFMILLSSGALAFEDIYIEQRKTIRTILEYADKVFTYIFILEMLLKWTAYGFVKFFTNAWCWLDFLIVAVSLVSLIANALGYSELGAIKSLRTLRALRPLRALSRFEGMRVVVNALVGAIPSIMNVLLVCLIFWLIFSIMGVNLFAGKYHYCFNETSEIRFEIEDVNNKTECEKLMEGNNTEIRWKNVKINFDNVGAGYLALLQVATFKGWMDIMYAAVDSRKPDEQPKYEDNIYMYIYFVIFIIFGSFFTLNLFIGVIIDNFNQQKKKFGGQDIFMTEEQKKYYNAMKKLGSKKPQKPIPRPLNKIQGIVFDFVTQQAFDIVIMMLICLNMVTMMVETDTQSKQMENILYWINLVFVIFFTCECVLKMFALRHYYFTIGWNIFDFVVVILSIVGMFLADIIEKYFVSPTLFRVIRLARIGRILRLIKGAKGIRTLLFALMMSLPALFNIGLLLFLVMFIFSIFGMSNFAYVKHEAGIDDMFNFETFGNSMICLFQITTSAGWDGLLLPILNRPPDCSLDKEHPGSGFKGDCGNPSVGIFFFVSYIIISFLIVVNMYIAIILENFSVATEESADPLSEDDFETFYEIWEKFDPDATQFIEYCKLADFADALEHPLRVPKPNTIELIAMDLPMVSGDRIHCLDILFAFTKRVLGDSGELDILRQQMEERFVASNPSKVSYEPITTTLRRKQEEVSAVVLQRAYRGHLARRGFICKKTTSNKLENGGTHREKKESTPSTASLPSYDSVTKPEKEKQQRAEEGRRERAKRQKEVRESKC
The target of assay [8] is hNav1.1 (human) (UniProt P35498).
Assay [9] addresses hNav1.2 (human) (UniProt Q99250).

Sequence of hNav1.8 (human) (Q9Y5Y9 whole entry): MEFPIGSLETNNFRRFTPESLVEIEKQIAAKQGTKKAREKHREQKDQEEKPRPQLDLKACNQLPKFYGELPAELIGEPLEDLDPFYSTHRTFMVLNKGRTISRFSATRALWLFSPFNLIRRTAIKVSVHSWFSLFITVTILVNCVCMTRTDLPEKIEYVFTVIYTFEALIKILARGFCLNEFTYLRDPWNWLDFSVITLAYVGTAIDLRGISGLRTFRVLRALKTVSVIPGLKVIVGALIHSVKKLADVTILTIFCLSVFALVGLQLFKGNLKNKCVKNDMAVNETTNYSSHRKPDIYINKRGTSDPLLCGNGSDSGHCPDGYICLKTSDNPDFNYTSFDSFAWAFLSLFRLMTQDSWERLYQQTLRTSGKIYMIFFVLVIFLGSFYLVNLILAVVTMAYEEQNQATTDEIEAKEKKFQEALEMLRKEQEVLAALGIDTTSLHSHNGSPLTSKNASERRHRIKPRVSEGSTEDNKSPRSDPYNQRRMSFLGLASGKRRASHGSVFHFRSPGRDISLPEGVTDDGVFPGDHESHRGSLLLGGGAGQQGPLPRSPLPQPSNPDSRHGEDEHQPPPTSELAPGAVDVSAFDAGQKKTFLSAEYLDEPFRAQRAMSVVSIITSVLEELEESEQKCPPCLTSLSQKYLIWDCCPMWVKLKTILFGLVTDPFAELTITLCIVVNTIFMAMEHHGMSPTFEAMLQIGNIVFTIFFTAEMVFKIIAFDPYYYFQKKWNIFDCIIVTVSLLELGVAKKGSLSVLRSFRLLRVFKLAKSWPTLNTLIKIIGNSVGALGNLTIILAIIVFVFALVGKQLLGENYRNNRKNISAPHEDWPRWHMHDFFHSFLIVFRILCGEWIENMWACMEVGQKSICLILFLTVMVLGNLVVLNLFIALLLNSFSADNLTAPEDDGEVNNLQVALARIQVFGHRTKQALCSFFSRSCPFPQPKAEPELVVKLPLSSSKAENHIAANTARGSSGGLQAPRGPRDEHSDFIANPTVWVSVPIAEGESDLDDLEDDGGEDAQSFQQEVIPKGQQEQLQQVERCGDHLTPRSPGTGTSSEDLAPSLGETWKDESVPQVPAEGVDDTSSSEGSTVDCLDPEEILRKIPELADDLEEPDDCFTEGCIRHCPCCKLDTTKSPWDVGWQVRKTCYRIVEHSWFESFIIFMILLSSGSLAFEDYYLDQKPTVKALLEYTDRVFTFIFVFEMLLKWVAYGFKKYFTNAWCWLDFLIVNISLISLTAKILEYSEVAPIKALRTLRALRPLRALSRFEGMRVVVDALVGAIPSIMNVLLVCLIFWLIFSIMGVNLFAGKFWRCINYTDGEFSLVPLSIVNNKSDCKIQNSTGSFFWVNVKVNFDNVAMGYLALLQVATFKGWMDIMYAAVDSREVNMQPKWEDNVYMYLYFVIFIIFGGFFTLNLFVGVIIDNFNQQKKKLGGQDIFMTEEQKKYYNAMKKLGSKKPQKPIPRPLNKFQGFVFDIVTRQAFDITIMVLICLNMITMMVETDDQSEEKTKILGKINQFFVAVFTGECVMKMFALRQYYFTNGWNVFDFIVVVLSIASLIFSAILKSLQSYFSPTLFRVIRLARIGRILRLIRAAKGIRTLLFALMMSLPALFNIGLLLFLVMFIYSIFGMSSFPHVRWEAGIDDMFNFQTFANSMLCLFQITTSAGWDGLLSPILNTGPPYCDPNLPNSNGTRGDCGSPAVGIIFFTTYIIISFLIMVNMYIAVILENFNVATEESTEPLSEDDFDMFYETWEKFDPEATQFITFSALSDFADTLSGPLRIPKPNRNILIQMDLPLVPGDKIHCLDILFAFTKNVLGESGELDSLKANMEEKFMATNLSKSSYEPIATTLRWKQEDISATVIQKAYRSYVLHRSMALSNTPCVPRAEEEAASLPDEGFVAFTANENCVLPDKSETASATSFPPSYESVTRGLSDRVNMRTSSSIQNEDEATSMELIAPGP

Turning to Pnc1a (peptide), the pIC50, automated patch clamp is greater than 9.04 M in [1]; 4.32 M in assay [2]; 5.63 M in assay [3]; 6.68 M in [4]; 6.01 M in assay [5]; 6.8 M in [6]. For the same substance, the pIC50, automated patch clamp in [7] turned out to be 6.89 M; in assay [8] it was 7.43 M; in assay [9], 6.9 M. Also, the pIC50, membrane potential assay in assay [2] was 4.58 M; in [4], 5.09 M; in assay [5], 4.07 M; in assay [6], 4.95 M; in assay [7] it was 4.73 M; in assay [8], 4.88 M. In addition, in [9], the pIC50, membrane potential assay came out at 5.53 M.

For the origin of these results see patent publication US20190359662A1.
